Results taken from the RNAGym collection of RNA variant scans (doi:10.1073/pnas.2313332121).

B1: TPR t1 (parent)
chain: GACCAAUCUGCCCUCAGAGCUCGAGAACAUCUUCGGAUGCAGAGGAGGCAGGCUUCGGUGGCGCGAUAGCGCCAACGUCCUCAACCUCCAAUGCAUCCCACCACAUGAUGAUGCCUGAAGAGCCUUGGUUUUUUG

Variants of: B1
Assay: polymerase ribozyme fitness, log enrichment relative to wild type (log ratio); higher = more active; in vitro selection for triplet polymerase activity
How it was run: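 In triplicate, a single round of in vitro selection was run on each mutant library, PCR-built and transcribed, covering one subunit of a heterodimeric triplet polymerase ribozyme. Frozen incubation at −7 °C followed annealing with a biotinylated primer, partner subunit and triplets, and extended constructs were then gel-excised, streptavidin-captured and taken through RT-PCR. Fitness is the logarithm of genotype enrichment over wild-type enrichment, from inverse-variance-weighted replicate averages of Illumina-sequenced inputs and outputs. […] only genotypes with ≥10 input reads and ≥1 read per output were kept.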

Variant	polymerase ribozyme fitness (log ratio)
A6C C8U C11U G69U C104G	-5.29
U7A C8U G61U	0.322
U7C C62A G110A A119C	-4.23
A6C G10A U33A C49A A121U	-2.86
A6U C8A U129A	-1.48
A6C C12G G52A G63U U106A	-2.76
A6G C34G C56A C70G G120U	-6.8
A6U C22G A26U C104U	-4.49
A6U C86U C89G	-1.63
U7A G48C C85U G120C	-0.382
U7A G36C G52A U55G	-0.803
A6U G47A C72G A75G	-2.41
U7A G10U C64G G93A	-6.26
A6C A29U C56U C94A U112G	-3.35
A6U C12G C72U U78C	-0.414
A6U A37U G60U C82G C85G	-2.29
U7C G42U G69C	-2.97
A6U C56G	-0.948
U7A C8A A37G U59G C62U C88U G113C	-3.69
U7A C56A G65C G71A	-7.51
U7C C31U	-4.85

Variant	polymerase ribozyme fitness (log ratio)
A6U G45A G52A A75U	-0.0939
A6U C15G U59G	-2.42
A6U C40G G51U	-4.16
A6U A26U C70A G120U	-5.12
A6C G47A	0.295
A6C G52U C70G A74U G120C	-5.83
A6C C22G A43C U59A U87C A118G	-5.18
A6C C31G C34U G42U G93C A111C	-6.9
U7A C53U U59G G60U C72G	-0.651
A6C G35C G57U G58U G60C U81G A111G U125C G135A	-6.83
A6C C12A C53U U78C	-1.07
A6C U9G G57U G113U G128U	-3.88
U7A C12U A43U C49A C114G	-1.69
U7C U21C A83G G120A	0.428
A6C G36U G51A U109C C115U	-6.39
A6U C124U	1.56
A6U U78G A83C	-0.41
A6U G93C	-0.28
A6U C8A A37G G61U C98A	-3.75
A6U G44A C56U	-0.291
A6G C11A U109G A119C C123G U125C	-5.22

Variant	polymerase ribozyme fitness (log ratio)
U7A C101A	-1.43
A6G G45C C94U G120A U126G	-5.4
A6C C22A U87C G113C	-5.35
A6G U30C C73U C124A	-1.64
U7C A18U C53U G60U G61U	-4.77
A6C C85A	-2.67
U7A C34A G61U C97U	-2.06
U7A U21G G35A G52C C114U	-5.47
A6G G48U U54A G127A	-2.59
A6C A108G U129G	-3.64
A6G A121U U125G	-0.777
U7C C62U C99G U112G U132C U134A G135U	-6.65
A6U G58A A83U U106A	0.545
U7A C72A	-0.427
A6U C8G G44U C49A G77U G120C U130G	-2.14
A6C C80A	-1.52
U7C C97U C114A	-1.45
A6C C15U	-1.98
A6C C72A	-1.05
A6C C72U	-0.203
U7A C13U C15U G44U U59C G77U	-2.18

Variant	polymerase ribozyme fitness (log ratio)
A6C U78A C79A	-3.63
A6C C11G C15U C102A G120A U133A	-2.14
A6U A26U	-3.54
A6C U133A	-0.897
A6C G113U	-3.54
A6G C22U A43C G45U C94A C124A	-5.87
A6U G10U C13A C22A C49U G63A	-5.88
A6G G77U C82A C104U A121U U130A	1.36
A6G G10A C20A U112G	-1.35
A6C U38A C53G	-0.826
A6C C40A C53G C99U U109A U112G	-5.56
U7C U21G U96G	-1.67
A6U A46U G110U	-2.57
A6U G69U	0.777
U7A G35A U78G	-4.41
A6G G45A C72U U109G G120U	-5.05
U7A G47C C62U	-1.37
U7A A105U C115U	-3.4
A6U C34G U87A G120A	-3.94
A6C C13A C88A	-3.16
A6C G61U U78C A100U G120A U131C	0.181
